31 sequences from the supplement of paper PMC9170038 can be followed below.

This data set relates to MS2 coat protein. The data set is described as follows: apparent KD of MS2 coat protein; designed switch direction (-1 OFF switch, 1 ON switch): -1; higher = weaker reporter binding. The method, boiled down:
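Normalised cluster fluorescence was curve-fitted, and each design's median over clusters is its apparent KD. Before this, SNAP-549-labelled MS2 coat protein was titrated from 0.7 or 1.5 nM, doubling to 3 µM, over RNA switches transcribed on Illumina chips by stalled E. coli RNA polymerase. Titrations had no input, 200 uM small-molecule ligand, or an oligonucleotide input, and steps lasted 0.8–1.5 h (lowest) to 10–20 min (highest).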

[1] abbreviates: Eterna round: R95, input ligand: microRNA oligo, concentration not stated.
The mark [2] stands for this setting: Eterna round: R95, input ligand: FMN 200 uM.
The mark [3] stands for this setting: Eterna round: R95, input ligand: none.
[4] abbreviates: input ligand: microRNA oligo, concentration not stated.

On to “GGUUAAUGCAAGGAUAUGCUAUUAUUUUAUUUUGCAGAAGGUGCAACAUGAGGAUCACCCAUGUUGGAGGGUUU [JR_E6_Sub025] (puzzle: Exclusion 6)”, for which, under setting [1], the “apparent KD of MS2 coat protein” value was 18.6 nM.

With “GGUUGGCGAGGAUAUACAUGAGGAUCACCCAUGUGAGAGAAAAAAGUGAGGAAGACAAGUAGAAGGCGCUGACG [salish99_ex3_r3_035] (puzzle: Exclusion 3)”, the “apparent KD of MS2 coat protein” value runs as follows: under setting [2], 8540 nM; under setting [1], 237 nM; under setting [3], 125 nM.

On to “GGUUGGCGAGGAUAUACAUGAGGAUCACCCAUGUGAGAGAAAGAAGUGAGAACGAAAAGUAGAAGGCGCUGACG [salish99_ex3_r3_058] (puzzle: Exclusion 3)”, for which the “apparent KD of MS2 coat protein” value amounted to 48.1 nM under setting [2], 65.8 nM under setting [1] and 66.1 nM under setting [3].

Take “GGUUGGCGAGGAUAUACAUGAGGAUCACCCAUGUGAGAGACAAAAGUGAGGAAGAAAAGUAGAAGGCGCUGACG [salish99_ex3_r3_022] (puzzle: Exclusion 3)”: the “apparent KD of MS2 coat protein” value turned out to be 2000 nM under setting [2], 84.5 nM under setting [1] and 232 nM under setting [3].

Take “GGUUGGCGAGGAUAUACAUGAGGAUCACCCAUGUGAGAGAGAAAAGUGAGGAAGAAAAGUAGAAGGCGCUGACG [salish99_ex3_r3_003] (puzzle: Exclusion 3)”: the “apparent KD of MS2 coat protein” value is, setting by setting: under setting [2], 97.3 nM; under setting [1], 48 nM; under setting [3], 36.1 nM.

For “GGUUGGUGAGGAUAUACAUGAGGAUCACCCAUGUGAGAGAAAGAAGUGAGGAAGAAAAGUAGAAGGCGCUGACG [salish99_ex3_r3_054] (puzzle: Exclusion 3)”, the “apparent KD of MS2 coat protein” value under setting [2] was 87.1 nM, the “apparent KD of MS2 coat protein” value under setting [1] was found to be 40.4 nM and the “apparent KD of MS2 coat protein” value under setting [3] is 54.2 nM.

“GUAAACGAAGAGGAUAUUUGAUAUCAAAGCUUCAAAGAAGGCUUCACAUGAGGAUCACCCAUGUGAUCUUCAAG [Mat - Exclusion 6 - JL Mod - D17] (Eterna round: R97, puzzle: Exclusion 6)”: the “apparent KD of MS2 coat protein” value was 404 nM (input ligand: FMN 200 uM) and 28.4 nM (input ligand: none).

With “GUAAAGUGAGGAUAUGGUAAUUUAAUUAUUAAUUAAUUAAUCCAGAAGGCACAUGAGGAUCACCCAUGUAAAGG [Mat - Exclusion 4 - D93] (puzzle: Exclusion 4)”, the “apparent KD of MS2 coat protein” value under setting [1] was 34.6 nM.

As for “GUAAUUAAUGUAGGAUAUGCAAGGCGAAACAUGAGAGAAGGCCAUGUGGAUCACCCAUGUAAUGCGGUCUGCGUACAGAUCGCU [salish99_ExNG1_r4_003] (Eterna round: R96, puzzle: Exclusion NG 1)”, the “apparent KD of MS2 coat protein” value by setting is: (input ligand: FMN 200 uM) 38 nM; under setting [4], 16.1 nM; (input ligand: none) 65.5 nM.

Regarding “GUAAUUAAUGUAGGAUAUGCAAGGCGAACCUAAGCAGAAGGACAUGUGGAUCACCCAUGUAAACAUGAGGAUCACCCAUGUGCU [salish99_ExNG1_r4_006] (Eterna round: R96, puzzle: Exclusion NG 1)”, the “apparent KD of MS2 coat protein” value runs as follows: (input ligand: FMN 200 uM) 1320 nM; under setting [4], 1340 nM; (input ligand: none) 4270 nM.

With “GUAAUUAUAUAGGAUAUCGAAAGUAUAAUUUAACGAGAAGGAUGAACAUGAGGAUCACCCAUGUGGUAUCAUGG [JL-ex6-3.08] (puzzle: Exclusion 6)”, the “apparent KD of MS2 coat protein” value amounted to 66.4 nM under setting [2], 321 nM under setting [1] and 219 nM under setting [3].

Turning to “GUACGAGCCAAACACGUGGACAUGAGGAUCACCCAUGUGUCACCGGAUCCAUAGAGCUCGUCUUACCGACAAAAGCU [Eternabot (Original) Solution 17] (Eterna round: R97, puzzle: Sensor, turn-off variant 1)”, the “apparent KD of MS2 coat protein” value turned out to be 28.9 nM (input ligand: FMN 200 uM) and 31.6 nM (input ligand: none).

“GUACGGUAAGGAUAUUGGAGGCCAAAGCACGAGUAGUACUCUAAGAAGGUACAUGAGGAUCACCCAUGUACGAG [Eternabot (L2) Solution 63] (Eterna round: R97, puzzle: Exclusion 4)”: the “apparent KD of MS2 coat protein” value is 18.8 nM (input ligand: FMN 200 uM) and 16.9 nM (input ligand: none).

For “GUAGAGUCAGGAUAUACGAGAUCGAAAGAUCGGCGGUCCAUACAUGAGGAUCACCCAUGUAGAAGGGACUCUAC [Omei mod 5 to Eli's favorate candidate (ch.parushev)] (Eterna round: R97, puzzle: Exclusion 2)”, the “apparent KD of MS2 coat protein” value (input ligand: FMN 200 uM) is 115 nM and the “apparent KD of MS2 coat protein” value (input ligand: none) stood at 18.3 nM.

Regarding “GUAGAGUGAGGAUAUACGAGAUCGAAAGAUCGGCGAUCCAAACAUGAGGAUCACCCAUGUAGAAGGCACUCUAC [Eli x2 4.006] (Eterna round: R97, puzzle: Exclusion 2)”, the “apparent KD of MS2 coat protein” value (input ligand: FMN 200 uM) worked out at 202 nM and the “apparent KD of MS2 coat protein” value (input ligand: none) was 140 nM.

As for “GUAGAUCGAGUUAGGAUAUGAUUACUAUCCGAAAAUCAGAAGGAACUUGAGGAUCACCCAAGUAUAGAUGAUAU [JR_BMEx4_Sub053] (Eterna round: R97, puzzle: Brourd's mod of Exclusion 4)”, the “apparent KD of MS2 coat protein” value came out at 21.7 nM (input ligand: FMN 200 uM) and 16.9 nM (input ligand: none).

As to “GUAUAAUGAGUCAGGAUAUUGAUGACGCUAGGACACAAGAAGGGACAUGAGGAUCACCCAUGUUAUUAUGCGGU [Eternabot (L2) Solution 29] (Eterna round: R97, puzzle: Brourd's mod of Exclusion 4)”, the “apparent KD of MS2 coat protein” value reads like this: (input ligand: FMN 200 uM) 88.2 nM; (input ligand: none) 63.9 nM.

Consider “GUAUAGUGAGGAUAUAUAUGCAGUAAACCUCAAAAGAUCGAACUUGAGGAUCACCCAAGUAGAAGGCGCGAGAU [JR_Ex2_Sub052] (Eterna round: R97, puzzle: Exclusion 2)”, for which the “apparent KD of MS2 coat protein” value reads like this: (input ligand: FMN 200 uM) 24.5 nM; (input ligand: none) 30.4 nM.

As to “GUAUAUAGUGUGAGGAUAUGCUGGUCCUUGGAUCAGCAGAAGGCACAUGAGGAUCACCCAUGUAGUUAAAUAUA [Mat - Exclusion 4 - JL Mod - D20] (puzzle: Brourd's mod of Exclusion 4)”, under setting [1], the “apparent KD of MS2 coat protein” value stood at 30.1 nM.

Turning to “GUAUAUAGUGUGAGGAUAUGCUGGUCCUUGGAUCAGCAGAAGGCACAUGAGGAUCACCCAUGUAGUUUAUUUUG [Mat - Exclusion 4 - JL Mod - D7] (puzzle: Brourd's mod of Exclusion 4)”, the “apparent KD of MS2 coat protein” value under setting [1] amounted to 16.2 nM.

As for “GUAUCGUGAGGAUAUCUAGACUGACUUAGUACAUGUCAGCUGGAGAAGGCACAUGAGGAUCACCCAUGUGAUUA (puzzle: Exclusion 4)”, the “apparent KD of MS2 coat protein” value under setting [1] was determined as 22.2 nM.

On to “GUCAGCUCGUCAGGAUAUACAUCACUGCUUCGGCAGUGUAUUAAGAUCACAUGAGGAUCACCCAUGUAGAAGGGACGAGCUGAC [ENG2/2-B1] (Eterna round: R96, puzzle: Exclusion NG 2)”, for which the “apparent KD of MS2 coat protein” value reads like this: (input ligand: FMN 200 uM) 269 nM; under setting [4], 21.2 nM; (input ligand: none) 21.9 nM.

On to “GUCAGCUCGUCAGGAUAUAUAUUAACAUGAGGAUCACCCAUGUAAGAUCAGCUUCGGCAGUUAAUAUAGAAGGGACGAGCUGAC [ENG2/14-B1] (Eterna round: R96, puzzle: Exclusion NG 2)”, for which the “apparent KD of MS2 coat protein” value is 181 nM (input ligand: FMN 200 uM), 154 nM under setting [4] and 153 nM (input ligand: none).

In the case of “GUCAGCUCGUGAGGAUAUACAUGAUAGAUCGAUUAAUUAAUUAAUUUAACAUGAGGAUCACCCAUGUAGAAGGCACGAGCUGAC [ENG2/1-A1] (Eterna round: R96, puzzle: Exclusion NG 2)”, under setting [4], the “apparent KD of MS2 coat protein” value stood at 30.9 nM.

For the sequence “GUCAGCUCGUGAGGAUAUACAUGAUAGAUCGAUUAAUUAAUUAAUUUAACAUGAGGAUCACCCAUGUAGAAGGCACGAGCUGAU [ENG2/1-A2] (Eterna round: R96, puzzle: Exclusion NG 2)”, the “apparent KD of MS2 coat protein” value under setting [4] stood at 35.8 nM.

In the case of “GUCAGCUCGUGAGGAUAUGAACAUGAGGAUCACCCAUGUAAGAUCAAGCUGCUUCGGCAGCAAGUUCAGAAGGUACGAGCUGAC [ENG2/10-C1] (Eterna round: R96, puzzle: Exclusion NG 2)”, the “apparent KD of MS2 coat protein” value reads like this: (input ligand: FMN 200 uM) 150 nM; under setting [4], 77.5 nM; (input ligand: none) 130 nM.

For “GUCAGCUCGUGAGGAUAUGCACAUGAGGAUCACCCAUGUAAGAUCAAGCUGCUUCGGCAGCAAGUGCAGAAGGCACGAGCUGAC [ENG2/9-A1] (Eterna round: R96, puzzle: Exclusion NG 2)”, the “apparent KD of MS2 coat protein” value is, setting by setting: (input ligand: FMN 200 uM) 137 nM; under setting [4], 138 nM; (input ligand: none) 303 nM.

For “GUCAGCUCGUGAGGAUAUGUAUAUACAUGAGGAUCACCCAUGUUAGAUCUGCUUCGGCUGUAUAUACAGAAGGCACGAGCUGAC [ENG2/16-A1] (Eterna round: R96, puzzle: Exclusion NG 2)”, the “apparent KD of MS2 coat protein” value amounted to 504 nM (input ligand: FMN 200 uM), 382 nM under setting [4] and 308 nM (input ligand: none).

Take “GUCAUCACACAUGGGAUCAACAUGAGGAUCACCCAUGUUGCCAAGCCGUUUGCACGUCUUAUCAUACGUUUUUCGAU [Mod-Jxj] (Eterna round: R97, puzzle: Sensor, turn-off variant 1)”: the “apparent KD of MS2 coat protein” value runs as follows: (input ligand: FMN 200 uM) 90.2 nM; (input ligand: none) 99.8 nM.

Take “GUCCGGCAUGUAGGAUAUGGAUCCGAUUAGGAUUUAGAAGGACAUGAGGAUCACCCAUGUGCAUUUAAUUAGUCAUUACCGGAU [EXclNG1-LROPPY05] (Eterna round: R96, puzzle: Exclusion NG 1)”: the “apparent KD of MS2 coat protein” value (input ligand: FMN 200 uM) worked out at 17.4 nM, the “apparent KD of MS2 coat protein” value under setting [4] stood at 13.6 nM and the “apparent KD of MS2 coat protein” value (input ligand: none) came out at 17.9 nM.

Regarding “GUCCUCAUGGCGCCUAAACACAUGAGGAUCACCCAUGUACAGGCUUUUUGCCGUCUUAUAAUAAAACCGAGGAUGCG [Reanaor] (puzzle: Sensor v3, turn-off variant 1)”, the “apparent KD of MS2 coat protein” value amounted to 103 nM under setting [2], 157 nM under setting [1] and 148 nM under setting [3].
